Assay results taken from PMC8268124, “Structure and Function of Piezophilic Hyperthermophilic Pyrococcus yayanosii pApase” (International Journal of Molecular Sciences, 2021).

Substrate: Nc1ncnc2c1ncn2[C@@H]1O[C@H](COP(=O)(O)O)[C@@H](OP(=O)(O)O)[C@H]1O
Test: HPLC of AMP product, initial rates, double reciprocal plot
Type: biochemical, Pyrococcus yayanosii
Conditions: 20 mM Tris-HCl pH 8.0, 50 mM NaCl, 1.0 mM MnCl2, 1.0 mM DTT, 100 µg/mL BSA, 70 °C
From the text: HPLC of AMP product, initial rates, double reciprocal plot on PyapApase

| Protein | Km [µM] | kcat [s⁻¹] | kcat/Km [M⁻¹ s⁻¹] |
| --- | --- | --- | --- |
| PyapApase (Pyrococcus yayanosii CH1) (protein) MLALIIHHWDTDGITTAALLVRALELGDFKNMTPPIGEFRFDGKIWAAIERADKLYVLDLNLPQEVEKVPVETLFIDHHIQPRIKNPRVRQVNPALEGKHYPSASLVVSEHFGIFNAWSALGAVGDIGEKAFELSRVEELLKGEGLSREDALKLVELIDSNYIVMDRMAVEEALHVLLNYELRELLEYEPWIRRVEAIKEAVEEVMSSVEERNGFAIVDFESPFNIISKVARKLVWEKGYRGAVVVNRNFHGKAQVYFRVSPKEAERISVLTIIGKLRGLGVNAGGKREVIGCICERGKLDEVLSVIDAYLG | 272 ± 12.6 |  |  |
| PyapApase (Pyrococcus yayanosii CH1; D12A) (protein) MLALIIHHWDTAGITTAALLVRALELGDFKNMTPPIGEFRFDGKIWAAIERADKLYVLDLNLPQEVEKVPVETLFIDHHIQPRIKNPRVRQVNPALEGKHYPSASLVVSEHFGIFNAWSALGAVGDIGEKAFELSRVEELLKGEGLSREDALKLVELIDSNYIVMDRMAVEEALHVLLNYELRELLEYEPWIRRVEAIKEAVEEVMSSVEERNGFAIVDFESPFNIISKVARKLVWEKGYRGAVVVNRNFHGKAQVYFRVSPKEAERISVLTIIGKLRGLGVNAGGKREVIGCICERGKLDEVLSVIDAYLG | 790 ± 47.7 | 1.7 ± 0.3 | 2160 |
| PyapApase (Pyrococcus yayanosii CH1; R259A) (protein) MLALIIHHWDTDGITTAALLVRALELGDFKNMTPPIGEFRFDGKIWAAIERADKLYVLDLNLPQEVEKVPVETLFIDHHIQPRIKNPRVRQVNPALEGKHYPSASLVVSEHFGIFNAWSALGAVGDIGEKAFELSRVEELLKGEGLSREDALKLVELIDSNYIVMDRMAVEEALHVLLNYELRELLEYEPWIRRVEAIKEAVEEVMSSVEERNGFAIVDFESPFNIISKVARKLVWEKGYRGAVVVNRNFHGKAQVYFAVSPKEAERISVLTIIGKLRGLGVNAGGKREVIGCICERGKLDEVLSVIDAYLG | 6000 ± 753.4 |  |  |
| PyapApase (Pyrococcus yayanosii CH1; G285D) (protein) MLALIIHHWDTDGITTAALLVRALELGDFKNMTPPIGEFRFDGKIWAAIERADKLYVLDLNLPQEVEKVPVETLFIDHHIQPRIKNPRVRQVNPALEGKHYPSASLVVSEHFGIFNAWSALGAVGDIGEKAFELSRVEELLKGEGLSREDALKLVELIDSNYIVMDRMAVEEALHVLLNYELRELLEYEPWIRRVEAIKEAVEEVMSSVEERNGFAIVDFESPFNIISKVARKLVWEKGYRGAVVVNRNFHGKAQVYFRVSPKEAERISVLTIIGKLRGLGVNADGKREVIGCICERGKLDEVLSVIDAYLG | 4500 ± 607.7 |  |  |
| PyapApase (Pyrococcus yayanosii CH1; K287A) (protein) MLALIIHHWDTDGITTAALLVRALELGDFKNMTPPIGEFRFDGKIWAAIERADKLYVLDLNLPQEVEKVPVETLFIDHHIQPRIKNPRVRQVNPALEGKHYPSASLVVSEHFGIFNAWSALGAVGDIGEKAFELSRVEELLKGEGLSREDALKLVELIDSNYIVMDRMAVEEALHVLLNYELRELLEYEPWIRRVEAIKEAVEEVMSSVEERNGFAIVDFESPFNIISKVARKLVWEKGYRGAVVVNRNFHGKAQVYFRVSPKEAERISVLTIIGKLRGLGVNAGGAREVIGCICERGKLDEVLSVIDAYLG | 720 ± 33.1 | 17.10 ± 2.1 | 23800 |
